The Human Domainome abundance scans (Beltran et al. 2025)

B1: Receptor-interacting serine/threonine-protein kinase 2, residues 438 to 518; numbered along this chain, O43353 (parent)
chain: QWIQSKREDIVNQMTEACLNQSLDALLSRDLIMKEDYELVSTKPTRTSKVRQLLDTTDIQGEEFAKVIVQKLKDNKQMGLQ
B2: Advillin, residues 785 to 819; numbered along this chain, O75366 (parent)
chain: LSEQDFVSVFGITRGQFAALPGWKQLQMKKEKGLF

Variants of: B1
Test: abundance fitness (aPCA) (normalised: wild type 0, dead -1); higher = more abundant; growth selection in yeast, the domain comes from the species named
Details: Homo sapiens

Abundance fitness of substitutions, site by site:
K73: H -0.319 | S 0.001 | F -0.609 | G -0.132 | A -0.119 | M -0.107 | T -0.01 | L -0.064 | Q -0.003 | Y -0.039 | D -0.269 | P -0.633 | R 0.011 | N -0.191 | V -0.191 | E 0.072
K76: G 0.066 | D -0.192 | T -0.093 | V -0.301 | F -0.207 | E -0.19 | Q -0.032 | S 0.032 | P -0.314 | C 0.003 | A 0.008 | N -0.203 | L -0.125 | Y -0.272 | H -0.069 | R -0.192 | W -0.36
Q81: H -0.419
N75: K -0.535 | M -0.162 | P -0.446 | F -0.431 | T -0.245 | Q -0.046 | C -0.2 | L -0.135 | G -0.241 | A -0.281 | V -0.383 | H -0.024 | Y -0.285 | R -0.62 | W -0.244 | D -0.053
Q70: M -0.436 | N -0.81 | A -0.072 | Y -0.776 | P -0.567 | G -0.144 | W -0.645 | V -0.714 | E 0.08 | L -0.687 | S -0.174 | I -0.614 | H -0.351 | D -0.206
M78: I -0.372
Q77: H -0.137
V69: W -0.4 | Q -0.306 | N -0.94 | S -0.57 | Y -0.23
L72: H -0.741 | R -0.633 | T -0.448 | Q -0.451 | C -0.713 | Y -0.695 | S -0.587 | F -0.072 | N -0.043 | P -0.54 | A -0.865 | G -0.528 | M 0.121 | V -0.394 | E -0.283
G79: S -0.021 | V -0.167 | R -0.282
K71: E -0.21 | F -0.249 | Q -0.086 | M -0.113 | G -0.281 | W -1.09 | Y -0.204 | R -0.612 | N -0.157 | A 0.022 | V 0.151 | I -0.122 | H 0.078 | D -0.381 | P -0.555 | S 0.028 | C -0.02 | L -0.289
D74: N -0.345 | Y -0.173 | R -0.49 | P -0.512 | T -0.285 | C -0.246 | I -0.261 | Q -0.248 | W -0.488 | H 0.046 | M -0.399 | S -0.323 | G -0.336 | E -0.085 | A -0.076 | K -0.644 | F -0.486

Variants of: B2
Test: as above
Details: Homo sapiens

Abundance fitness of substitutions, site by site:
F6: R -0.468 | K -0.514 | C 0.06 | G -1.08 | T -0.183 | W -0.186 | H -0.87 | S -0.488 | N -0.928 | E -0.906 | Y -0.224 | I -0.162 | D -0.831 | A -1.28 | V -1.19 | Q -0.402 | P -0.461
E3: S -0.183 | N 0.165 | P -0.268 | F -0.039 | G -0.366 | M -0.461 | Y -0.543 | A -0.258 | K -0.409 | L -0.304 | C -0.421 | W -0.4 | T -0.092 | D 0.103 | R -0.476 | H -0.323 | I -0.175 | Q -0.225
Q4: K 0 | A -0.064 | T -0.202 | P -0.076 | S 0.019 | D -0.592 | L 0.016 | E 0.018 | W -0.267 | H -0.277 | V 0.002 | F -0.063 | I 0.237 | R -0.11 | C -0.846 | G -0.001 | N -0.317
G11: W -0.846 | R -0.513 | M -0.986 | A -0.485 | K -0.453 | T -0.547 | F 0.179 | D -0.647 | E -0.65 | P -0.797 | V -0.537 | S -0.353 | L -1.05
I12: D -0.442 | K -0.312 | L -0.101 | Q -0.897 | N -0.471 | W -0.999 | T -0.531 | A -0.445 | P -0.713 | H -0.633 | V -0.089 | S -0.629 | R -0.629 | Y -0.306 | E -0.592 | M 0.128 | G -0.429
T13: D -0.265 | Y -0.017 | E -0.101 | S -0.199 | M -0.369 | C -0.255 | Q -0.871 | N -0.26 | P -0.219 | F -0.368 | K -0.314 | V -0.53 | A -0.397 | I -0.475 | G -0.382 | L -0.619
V9: Y -0.156 | G -0.286 | R -0.162 | H 0.018 | W -0.684 | L -0.131 | D -0.443 | S -0.456 | T -0.141 | M -0.184 | F -0.422 | C -0.527 | P -0.632 | E -0.149 | A -0.222 | K -0.04
V7: S 0.071 | R -0.139 | T -0.115 | F -0.038 | A -0.149 | K -0.384 | E 0.105 | L 0.04 | Q 0.004 | M -0.291 | G -0.306 | D -0.085 | I -0.028 | W -0.343
S8: E 0.119 | Y -0.84 | K 0.156 | P -0.506 | L -0.238 | V -0.117 | M 0.003 | N -0.329 | A 0.052 | T -0.024 | D -0.081 | W -0.439 | F -0.476 | R 0.023 | G -0.026
S2: R -0.282 | V -0.322 | T -0.289 | G -0.078 | Y -0.505 | Q -0.416 | M -0.514 | L -0.123 | K -0.127 | E -0.085 | W -0.305 | C -0.175 | D 0.311 | P -0.584
L1: S -0.135 | C -0.279 | K -0.266 | N -0.078 | W -0.079 | E 0.694 | R -0.156 | A -0.322 | G -0.051
F10: T -0.367 | W -0.274 | G -0.27 | V -0.332 | N -0.2 | C -0.31 | D -0.316 | H -0.932 | L -0.392 | A -0.398 | Y -0.016 | K -0.319 | Q -0.59 | E -0.285 | S -0.383 | M -0.305 | P -0.726
D5: Y -0.782 | C -1.17 | G -0.188 | R -0.188 | Q -0.204 | L -0.209 | K -0.146 | E -0.073 | W -1 | T -0.255 | V -0.521 | P -0.651 | S -0.031 | M -0.332
R14: M -0.024 | F -0.117 | G -0.317 | D -0.431 | P -0.116 | C -0.095 | H -0.262 | E -0.024 | I -0.252 | K 0.145 | L -0.322 | A -0.121 | N -0.611
